Test results taken from JP2024051908A.

Assays:
[1] = biological target: BA.2スパイクRBD (SARS-CoV-2 Omicron BA.2)
[2] = biological target: BA.5スパイクRBD (SARS-CoV-2 Omicron BA.5)

Binder | Kd [1] [nM] | Kd [2] [nM]
MO1 (antibody, V domains shown) VH: EVQLVESGGGMVQPGRSLRLSCAASGFTFDDYAMHWVRQIPGKGLEWVSGISWNSGDIGYADSVKGRFTISRDNAKNSLHLQMNSLRAEDTALYYCAKDKTYDSPGYFLNSFDYWGQGTLVTVSS VL: DIQMTQSPSSLSASVGDRVTITCRASQGISSYLVWYQQKPGKAPKFLIYAASTLQSGVPSRFSGSGSGTDFTLTISSLQPEDFATYYCQQLYSYPITFGQGTRLEIK | 3.3 | 11
MO2 (antibody, V domains shown) VH: EVQLVESGGGLVKPGGSLSLSCVASGFTFSDYRMSWIRQAPGKGLEWVSYISSSSGYKDYADSVKGRFTISRDNAKNSLSLQMNSLRVEDTAVYYCARDVGVVTATPGYWGQGVPVSVSS VL: DIVMTQSPATLSVSPGERATLSCRASQSVGSNLAWYQQKPGQAPRLLIYDTSTRATGVPARFSGSGSGTDFTLTISSLQSEDFAVYLCHQYDQWPPAFGPGTRVDIK | 2 | 
